From paper PMC4231364, “Functional characterization and structural modeling of synthetic polyester-degrading hydrolases from Thermomonospora curvata” (AMB Express, 2014)

B1: Tcur0390 (Thermomonospora curvata DSM 43183) (protein)
chain: ANPYQRGPNPTEASITAARGPFNTAEITVSRLSVSGFGGGKIYYPTTTSEGTFGAIAISPGFTAYWSSLEWLGHRLASQGFVVIGIETNTTLDQPDQRGQQLLAALDYLTQRSAVRDRVDASRLAVAGHSMGGGGSLEAAKARTSLKAAIPLAPWNLDKTWPEVRTPTLIIGGELDAVAPVATHSIPFYNSLSNAPEKAYLELDNASHFFPNITNTQMAKYMIAWMKRFIDDDTRYTQFLCPPPSTGLLSDFSDARFTCPM
notes: mature protein without signal peptide, C-terminal His-tag, codon-optimised synthetic gene, pBAD TOPO, E. coli TOP10, IMAC purified, approx. 35 kDa
B2: Tcur1278 (Thermomonospora curvata DSM 43183) (protein)
chain: ANPYQRGPDPTESLLRAARGPFAVSEQSVSRLSVSGFGGGRIYYPTTTSQGTFGAIAISPGFTASWSSLAWLGPRLASHGFVVIGIETNTRLDQPDSRGRQLLAALDYLTQRSSVRNRVDASRLAVAGHSMGGGGTLEAAKSRTSLKAAIPIAPWNLDKTWPEVRTPTLIIGGELDSIAPVATHSIPFYNSLTNAREKAYLELNNASHFFPQFSNDTMAKFMISWMKRFIDDDTRYDQFLCPPPRAIGDISDYRDTCPHT
notes: as for B1

Legend:
[1] = substrate: CCCC(=O)Oc1ccc([N+](=O)[O-])cc1; experiment: esterase assay in microplate, Michaelis-Menten kinetics; type: biochemical, Thermomonospora curvata; conditions: 25°C, pH 8.5
From the text: esterase assay in microplate, Michaelis-Menten kinetics on Tcur0390

[2] = substrate: CCCC(=O)Oc1ccc([N+](=O)[O-])cc1; experiment: as above; type: biochemical, Thermomonospora curvata; conditions: 25°C, pH 8.5; remark: listed apart in the source
From the text: esterase assay in microplate, Michaelis-Menten kinetics on Tcur1278

Protein | Km [1] [µM] | kcat [1] [s⁻¹] | Km [2] [µM] | kcat [2] [s⁻¹]
B1 | 83.1 ± 11.1 | 12.4 ± 0.4 |  | 
B2 |  |  | 88.8 ± 12.8 | 2.3 ± 0.1
